Target: T1, GST-IPA1 (Oryza sativa, UniProt Q7EXZ2 1-417)
T1 sequence: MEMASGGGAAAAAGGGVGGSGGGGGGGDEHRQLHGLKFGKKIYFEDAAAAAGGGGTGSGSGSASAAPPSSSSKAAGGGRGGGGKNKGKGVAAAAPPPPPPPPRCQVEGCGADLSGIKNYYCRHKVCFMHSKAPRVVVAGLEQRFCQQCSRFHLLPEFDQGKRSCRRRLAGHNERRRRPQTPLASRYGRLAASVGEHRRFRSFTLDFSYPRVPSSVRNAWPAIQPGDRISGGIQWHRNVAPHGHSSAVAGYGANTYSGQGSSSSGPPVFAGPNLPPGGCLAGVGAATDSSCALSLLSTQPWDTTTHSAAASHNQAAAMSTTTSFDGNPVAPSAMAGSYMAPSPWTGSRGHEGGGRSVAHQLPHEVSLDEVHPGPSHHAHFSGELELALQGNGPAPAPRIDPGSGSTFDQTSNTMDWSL
Assay: EMSA; LightShift Chemiluminescent EMSA Kit (Thermo 20148) per manufacturer; buffer, salt, pH and temperature not stated
Conditions: protein: recombinant; tags: N-terminal GST (pGEX-4t-1); label: 5'-biotin on strand 1; blunt

B1: Biotin-P2 (OsCBF3 promoter) (dsDNA)
DNA 1: TACCTAGGTTTTAAGTTATAGTACTTACAATTTTTTGATGAG
DNA 2: CTCATCAAAAAATTGTAAGTACTATAACTTAAAACCTAGGTA
  binding result: binds

B2: Biotin-P2-m (GTAC to ATAC) (dsDNA)
DNA 1: TACCTAGGTTTTAAGTTATAATACTTACAATTTTTTGATGAG
DNA 2: CTCATCAAAAAATTGTAAGTATTATAACTTAAAACCTAGGTA
  binding result: no binding

From article PMC9325753, “Chilling-induced phosphorylation of IPA1 by OsSAPK6 activates chilling tolerance responses in rice”
